Results: paper PMC10170517

Assays:
Experiment in all cases: potentiometry
Details in all cases: 298 K; 0.1 M NaClO4; metal-free peptide, random coil
Glu7 (position 7, …) [1] = biological target: Glu7 (position 7, …)
Glu7 (position 7, …) [2] = biological target: Glu7 (position 7, …); remark: listed apart in the source
Glu7 (position 7, …) [3] = biological target: Glu7 (position 7, …); remark: listed apart in the source
Glu7 (position 7, …) [4] = biological target: Glu7 (position 7, …); remark: listed apart in the source

Protein	pKa (Glu7 (position 7, …) [1])	also measured
DKPAKAEDHDHHQGHAH [GroEL1 C-terminal tail peptide L6 (H13Q mutant of L2) (Mycobacterium tuberculosis; H13Q)]	4.96	
DKPAKAEDHDHQHGHAH [GroEL1 C-terminal tail peptide L5 (H12Q mutant of L2) (Mycobacterium tuberculosis; H12Q)]		pKa (Glu7 (position 7, …) [2]): 4.36
DKPAKAEDHDHHHGQAH [GroEL1 C-terminal tail peptide L7 (H15Q mutant of L2) (Mycobacterium tuberculosis; H15Q)]	4.45	
DKPAKAEDQDHHHGHAH [GroEL1 C-terminal tail peptide L3 (H9Q mutant of L2) (Mycobacterium tuberculosis; H9Q)]		pKa (Glu7 (position 7, …) [3]): 4.74
DKPAKAEDHDHHHGHAQ [GroEL1 C-terminal tail peptide L8 (H17Q mutant of L2) (Mycobacterium tuberculosis; H17Q)]	4.44	
DKPAKAEDHDQHHGHAH [GroEL1 C-terminal tail peptide L4 (H11Q mutant of L2) (Mycobacterium tuberculosis; H11Q)]		pKa (Glu7 (position 7, …) [4]): 4.71
